Reference: publication PMC10265101 (2023)

Tests used:
[1] = molecular target: T1, recombinant PD-L1 protein (#10084-HNAH, Sino Biological) (UniProt Q9NZQ7 19-290); assay: SPR; heterogeneous ligand fit, KD1
[2] = molecular target: CD3ε; assay: SPR
[3] = molecular target: T1, recombinant PD-L1 protein (#10084-HNAH, …); assay: SPR; heterogeneous ligand fit, KD2 (second site)

T1 sequence (Q9NZQ7 19-290): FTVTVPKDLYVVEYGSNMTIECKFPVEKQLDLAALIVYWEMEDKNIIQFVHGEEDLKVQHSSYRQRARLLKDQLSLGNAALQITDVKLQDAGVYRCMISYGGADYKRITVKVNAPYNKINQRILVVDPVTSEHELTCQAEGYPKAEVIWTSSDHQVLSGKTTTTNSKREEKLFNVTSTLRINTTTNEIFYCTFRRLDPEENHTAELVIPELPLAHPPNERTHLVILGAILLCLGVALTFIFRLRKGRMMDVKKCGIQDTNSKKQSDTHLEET

B1: recombinant Nb-BiTE (PD-L1/CD3ε Nb-BiTE) (bispecific antibody)
chain: HVQLVESGGGLVQPGGSLRLSCAASGFTFSSKAMSWVRQAPGKGLDWVSTINSGGGNTYYSDSVKGRFTISRDNAKNTLYLQLNSLKTEDTAMYYCSRCSDIYCGGQYTYRGQGTLVTVSSGGGGSGGGGSGGGGSEVQLVESGGGLVQPGGSLRLSCVASGFTFSSIGMSWVRQAPGKGLEWVSGLNPVGSHTGYADSVKGRFTISRDNAKNTLHLQLNSLKTEDTAMYYCQRGYTCSGDLCERGQGTQVTVSSGGGGSGGGGSGGGGSHVQLVESGGGSVQAGGSLRLSCTVSGVIFKNEYMGWFRQAPGKEREGVAAASPGGTITYYGDSVKGRFTISRDNAKNTVYLQMNRLKPEDTAMYYCALDPSTTSWSIIRHGPSLWRYSGRGTQVTVSS
Kd [1]: 9.86 nM
Kd [2]: 2.48 nM
Kd [3]: 0.00205 nM
